Experimental data: the domain aggregation screens of Martell et al. (2025)

test: soluble fraction after stress (log2 fold change); higher = more stays soluble; pooled small domains, quantitative proteomics; conditions: stress: pH 4
Outline: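 How much of each domain stays soluble after acid stress, expressed as a fold change, is used to gauge aggregation propensity. Pooled custom libraries of small domains underwent pH 4 stress before high-throughput quantitative proteomics. A higher log2 value means more of the domain stayed soluble.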

Row | Sequence | soluble fraction (log2)
1 | HMNMKVGPVPANVVPANIKAHVSNNYSKYQIVQMMQNDKGYQVKLSNGTDLYYDKDGNILKTS | 0.0948
2 | HMNLTEIGQRIRDRREELGLSQDRLAKLGGLPRVTINQLETGSIGDLGVSKLLNLLDLLGLTLDA | -0.614
3 | HMAAVAPPVLERIASDLATRFAGTLSPETVDRYVRESYHLLAERAGITRYLPSLTARFAGDRLDA | -0.208
4 | HMKELASKYEISEYMKFLIENLDKSNFFYPIEKRESMINNIFSIYSKADLSKKELNMLWGMLKKLR | -1.06
5 | HMVPPVVRTIYGAGGKMTATFLFPGGYEVDAASGAELPGKYRVESISLDQVVLTDKDGNRVPVGFSSVAPT | -0.161
6 | HMENNIPANIKALIISYVNQNYPGAVIHSIERNSNGTYDVEIYYNNREYDLLFDAQGNFISGNVDDQ | -0.366
7 | HMSGSLLQTRQRLQALTDLGHYKGDLAAAWGPEAIEALKRAQAALGITVDGKWGPETEDAIQVALQAQT | -0.133
8 | HMDNVINDGMQVRFTGNVDINGTPLKIYDRIYTAEGISDDTVVLMLGNDVYARVYLSDVVPAD | -0.275
9 | HMDIKKHISATLKREMEKRGLNFMEFSTELGIPRTTLQGYLKGTSSPQADSLEELADKLGISPAELVSG | -0.434
10 | HMDADGEPIKLDQIGISHLSFTVADVKSLGEELVAKGVKLAAPMEAFTSPEGRISSIFVYDPDGILLQFDD | -0.123
11 | HMEPREEFTFADLRANGLNGTAAAAGRRAALGAALGIGYGNAKQFLRRLNHYGVTRSEWEAALADLDE | -0.0963
12 | HMNVVDTGTDANYRVKISAVNLNMRLGPSTSYKSKGYITPGNYTIIKTSGDWGKVKETGYWVALKYTSKIN | 0.175
13 | HMREVGVPNLRGLTAEEAQIVLSNAGLNLRTEPIRRVHETITVGRIAEQDPMPDLTIRSQRSVTTWLSSGP | -0.268
14 | HMQKLKINKYKDPKGEIRYYIASTIRNGNKSSTHNLLSLGKHSDLLKEHSDVEAYLKERLNEAMESGI | 0.307
15 | HMSVHSAELKKLKAHLLGIIGRELETQPSTENREEMVRQILHQSYESLRLNLPMQLKEELFNEILAEVL | -0.689
16 | HMPQFDRQAFGQRLRLLRDYREMTQQQVANFLNVDRSTYSYYENGKTEPSITVLMRMAELFSVTLDSLLNM | -1.05
17 | HMVVADFQNYTVKPKENLYSLTKTSGLSQEELVALNPELKNGVQEGMVIKLPAAVKLMAQPE | 0.22
18 | HMGSVHDAATDRIREMILGGQFEPGERLRQDDLATSLGVSTMPVREALRQLQAEGLVVFYPRKGAVVAR | -0.173
19 | HMSEQLKQIAERIKELRNIAGLGEEELAAKLDIPVDTYREYESGNVDIPVSFLYKISGMFNVELTAIL | -1.05
20 | HMIKITLPDGSVKEYKKGITPAEVAQSISEGLARNVISASYNGKTIETVTPLTTDGSLVLYTWDSPEGK | -0.168
21 | HMSQPLYWQIRRMVIDHDDANDVLQNTFIKAWSNIGSFRGDAKFSTWLYKIAVNESITFINKKKVQN | -0.0472
22 | HMFKDVTVPSVINKTEAEATNMLKGLNLVVSVEYEENANKSDGIVTAQNVNANKVIKEGETVTITVNKQP | 0.22
23 | HMGTGIKQVNVVSVIGQDEETAKTTLTNLGLKVNVTYATSTSDNGKVTKQSIDAGKTVDEGTSVTITVNKV | -0.269
24 | HMQQEPNFYIVDGNTNQIVDRYYAPDSNVAHQYLGQWRQQHDPQETGNYRYGRLSSETEERYRNLAA | 0.188
25 | HMALSVRNRMSDLLRMLGDGEFHRFENLFSLEEGRHGIVVTFLAMLELAKEQLVEISQGESLAPIYLKSLA | -0.403
26 | HMAPVVAILTRQLPLPQAQQLAGQTALVRVVKGGPGNEAELEFAGQNIQVKLPPGRQLTAGEMVTVAFALS | -0.0882
27 | HMDGFAEFWSAYPKKVGKGAAEASWRKHRPPLQTVLDAVKRQAESDQWRKDGGQFIPNPATWLNQKRWEDD | -0.101
28 | HMIETLGDATFKRLKAMILDGTLEPGTRLSEKKFADHLGVSRTPVREAIGQLVSEGLAKRSAGSAPVVSS | 0.069
29 | HMSDAVQLGLRLRAARERRGLSQQAVADALGLPRTAVTNMESGNRAVSTLELTKLAALYGQSTAFFLSP | 0.291
30 | HMDFDVELTSAGTAKVKVIKAVREATGLGLKEAKDLVDNAPSIVKEGLDEAAANDLKAALEETGASVTL | 0.239
